The text below walks through data of article PMC2291074 (Molecular Vision, 2008).

The target in assay [1] is T1, recombinant human αB-crystallin (human, UniProt P02511 1-175).
T1 construct: human αB-crystallin, cDNA cloned into pET-23d(+); tryptic peptides 1-11 and 164-175 were observed; No tag is named and purification was by SEC and ion exchange, so it is probably untagged; source: E. coli BL21(DE3) pLysS, purified (size exclusion chromatography, then ion-exchange chromatography)
T1 sequence (looked up): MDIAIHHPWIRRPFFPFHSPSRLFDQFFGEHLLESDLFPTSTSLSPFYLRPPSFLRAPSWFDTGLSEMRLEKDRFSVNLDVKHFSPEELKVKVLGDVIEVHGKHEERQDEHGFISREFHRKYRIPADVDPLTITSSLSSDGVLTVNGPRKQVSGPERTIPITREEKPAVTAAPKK

For assay [2], the target named is T1, recombinant human αB-crystallin. Put plainly: cross-linking; sulfo-SBED label transfer: 0.25 mg derivatized peptide with 0.25 mg αB-crystallin at 37 °C for 2 h; unbound peptide removed on a 10,000 Da cut-off filter; photolysis at 365 nm for 15 min on ice; biotin on αB-crystallin detected by SDS-PAGE and avidin-HRP blot. Conditions: both partners purified.

Ends that are not written are not given here.

Consider SDADHGERLMSFRPIC [substituted peptide], for which, in assay [1], the light scattering at 60 min of βL-crystallin (100 μg) denatured at 55 °C with 5 μg αB-crystallin and 60 μg substituted peptide (αB-crystallin alone: decreased by 41%); no anti-chaperone effect came to 53%.

B1: sulfo-SBED-derivatized βA3/A1_(102–117) peptide (peptide)
peptide: SDAYHIERLMSFRPIC
modifications: also: sulfo-SBED cross-linker attached, site not given here
notes: The peptide has no lysine, so the amine-specific reagent probably sits on the N-terminal amine; also called biotin-derivatized peptide; source: synthetic peptide, purified by HPLC, derivatized with sulfo-SBED and dialyzed
Regarding B1, the binding result in assay [2] is recorded as “binds”.
